Here are results for five substances from US20240360223A1.

Assay [1] concerns the target poly-specificity reagent (PSR). In words: flow cytometry PSR assay: test article on protein A beads, biotinylated PSR detected with streptavidin-PE. A general note: Flow cytometry measures light scatter and fluorescence of single cells or particles in a stream.
The target in assay [2] is poly-specificity reagent (PSR). Kind of assay: flow cytometry PSR assay: test article on Protein A beads, biotinylated PSR, read-out with SA-PE.
The target of assay [3] is poly-specificity reagent (PSR). In words: PSR assay: protein on protein A coated beads, biotinylated PSR, SA-PE, flow cytometry; + PSR panel (Q2 is 0 in the No PSR panel FIG. 43E).

Turning to “Ixekizumab (PSR positive control) (antibody)”, the % of events in Q2 (Expression-FITC positive, Binding-PE positive), + PSR in assay [1] was found to be 79.6%.
On to Ixekizumab (antibody), for which, in assay [2], the % of events in Q2 (Expression-FITC positive, Binding-PE positive), + PSR is 79.6%.
For Ixekuzumab (antibody), in assay [3], the % of beads in quadrant Q2 (Binding-PE positive), + PSR turned out to be 27.1%.
On to Rituximab (antibody), for which, in assay [2], the % of events in Q2 (Expression-FITC positive, Binding-PE positive), + PSR was 56.2%.
On to trastuzumab (antibody), for which the values for the % of events in Q2 (Expression-FITC positive, Binding-PE positive), + PSR in assay [2] and in assay [1] were 0.087% and 0.067%, respectively.
